This is an account of results in the supplement of paper PMC10065799, “High-throughput profiling of sequence recognition by tyrosine kinases and SH2 domains using bacterial peptide display” (eLife, 2023).

One series concerns AncSZ. Kind of series: phosphorylation enrichment, bacterial display (enrichment ratio); higher = better substrate or ligand; peptides without Tyr show the background.
A further series concerns the target EPHB1 (UniProt P54762). The series is described as above.
Another series concerns the target EPHB2 (UniProt P29323). The series is described as above.
A further series deals with FGFR1 (UniProt P11362). The description is as above.
For the next series, the target named is FGFR3 (UniProt P22607). The series is described as above.
Another series concerns Fer (mouse). The series is described as above.
A further series concerns the target Fes (UniProt P07332). Described as above.
The target in a further series is Fyn (UniProt P06241). The description is as above.
In a further series the target is Hck (UniProt P08631). The series is described as above.
A further series addresses Jak2 (UniProt O60674). The series is described as above.
The target in a further series is MERTK (UniProt Q12866). The description is as above.
The next series deals with c-Abl (mouse). The description is as above.
The next series deals with c-Src. The description is as above.
The target of a further series is Grb2 SH2 (UniProt P62993). Kind of series: SH2 binding enrichment of the phosphorylated peptide, bacterial display (enrichment ratio); higher = better substrate or ligand; peptides without Tyr show the background.
The target in another series is SHP2-C SH2. Described as above.
Another series concerns the target c-Src SH2. Described as above.
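Wherever SH2 binding enrichment of the phosphorylated peptide, bacterial display is given: peptide library displayed on the E. coli surface as eCPX fusions, selected cells deep-sequenced, score is each peptide's frequency after selection divided by its frequency in the input.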
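Wherever phosphorylation enrichment, bacterial display is given: 11-residue human phosphosite peptides and single-mutation variants displayed on the E. coli surface, counted by deep sequencing, each peptide's frequency after selection divided by its frequency in the unselected input library; frequency after pTyr selection over input frequency; kinase dosed for 20-30% of maximal phosphorylation in three min.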

Chain of Hck (P08631 whole entry, looked up): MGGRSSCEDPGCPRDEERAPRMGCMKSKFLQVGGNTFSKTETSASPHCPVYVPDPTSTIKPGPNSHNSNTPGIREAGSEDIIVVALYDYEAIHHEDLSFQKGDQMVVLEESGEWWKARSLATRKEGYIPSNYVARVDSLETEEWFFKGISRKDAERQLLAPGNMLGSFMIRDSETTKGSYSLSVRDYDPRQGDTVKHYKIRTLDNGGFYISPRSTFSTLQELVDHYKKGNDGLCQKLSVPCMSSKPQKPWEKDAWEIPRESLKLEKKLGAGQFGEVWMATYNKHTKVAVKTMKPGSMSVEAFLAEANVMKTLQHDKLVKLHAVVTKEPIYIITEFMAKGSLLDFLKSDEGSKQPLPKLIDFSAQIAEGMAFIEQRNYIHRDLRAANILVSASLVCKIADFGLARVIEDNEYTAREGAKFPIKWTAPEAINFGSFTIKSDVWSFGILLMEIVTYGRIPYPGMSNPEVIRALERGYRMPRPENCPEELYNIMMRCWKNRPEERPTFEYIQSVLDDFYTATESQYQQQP
Chain of FGFR1 (P11362 whole entry, looked up): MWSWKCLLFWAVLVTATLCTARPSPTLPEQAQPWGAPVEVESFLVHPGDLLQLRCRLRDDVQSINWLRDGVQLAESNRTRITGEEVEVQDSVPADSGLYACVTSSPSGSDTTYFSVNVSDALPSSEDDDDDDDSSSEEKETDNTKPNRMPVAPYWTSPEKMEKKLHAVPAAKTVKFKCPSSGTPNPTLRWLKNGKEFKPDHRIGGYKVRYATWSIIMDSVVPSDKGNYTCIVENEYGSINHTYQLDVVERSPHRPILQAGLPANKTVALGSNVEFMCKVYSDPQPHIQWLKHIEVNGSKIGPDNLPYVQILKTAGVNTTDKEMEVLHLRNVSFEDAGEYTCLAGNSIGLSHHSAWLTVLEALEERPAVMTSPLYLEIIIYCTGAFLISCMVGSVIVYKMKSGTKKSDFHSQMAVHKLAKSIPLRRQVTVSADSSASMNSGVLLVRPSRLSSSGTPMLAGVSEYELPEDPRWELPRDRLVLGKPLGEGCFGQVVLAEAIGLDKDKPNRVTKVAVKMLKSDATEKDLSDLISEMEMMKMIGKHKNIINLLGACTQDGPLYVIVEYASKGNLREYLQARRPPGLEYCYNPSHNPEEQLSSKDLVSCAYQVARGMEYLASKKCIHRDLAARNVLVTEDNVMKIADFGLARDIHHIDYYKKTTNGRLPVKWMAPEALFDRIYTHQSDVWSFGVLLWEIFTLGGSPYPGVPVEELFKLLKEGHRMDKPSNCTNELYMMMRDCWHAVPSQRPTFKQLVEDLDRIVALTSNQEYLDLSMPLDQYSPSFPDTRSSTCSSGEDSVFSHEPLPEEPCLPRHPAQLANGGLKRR
Chain of EPHB2 (P29323 whole entry, looked up): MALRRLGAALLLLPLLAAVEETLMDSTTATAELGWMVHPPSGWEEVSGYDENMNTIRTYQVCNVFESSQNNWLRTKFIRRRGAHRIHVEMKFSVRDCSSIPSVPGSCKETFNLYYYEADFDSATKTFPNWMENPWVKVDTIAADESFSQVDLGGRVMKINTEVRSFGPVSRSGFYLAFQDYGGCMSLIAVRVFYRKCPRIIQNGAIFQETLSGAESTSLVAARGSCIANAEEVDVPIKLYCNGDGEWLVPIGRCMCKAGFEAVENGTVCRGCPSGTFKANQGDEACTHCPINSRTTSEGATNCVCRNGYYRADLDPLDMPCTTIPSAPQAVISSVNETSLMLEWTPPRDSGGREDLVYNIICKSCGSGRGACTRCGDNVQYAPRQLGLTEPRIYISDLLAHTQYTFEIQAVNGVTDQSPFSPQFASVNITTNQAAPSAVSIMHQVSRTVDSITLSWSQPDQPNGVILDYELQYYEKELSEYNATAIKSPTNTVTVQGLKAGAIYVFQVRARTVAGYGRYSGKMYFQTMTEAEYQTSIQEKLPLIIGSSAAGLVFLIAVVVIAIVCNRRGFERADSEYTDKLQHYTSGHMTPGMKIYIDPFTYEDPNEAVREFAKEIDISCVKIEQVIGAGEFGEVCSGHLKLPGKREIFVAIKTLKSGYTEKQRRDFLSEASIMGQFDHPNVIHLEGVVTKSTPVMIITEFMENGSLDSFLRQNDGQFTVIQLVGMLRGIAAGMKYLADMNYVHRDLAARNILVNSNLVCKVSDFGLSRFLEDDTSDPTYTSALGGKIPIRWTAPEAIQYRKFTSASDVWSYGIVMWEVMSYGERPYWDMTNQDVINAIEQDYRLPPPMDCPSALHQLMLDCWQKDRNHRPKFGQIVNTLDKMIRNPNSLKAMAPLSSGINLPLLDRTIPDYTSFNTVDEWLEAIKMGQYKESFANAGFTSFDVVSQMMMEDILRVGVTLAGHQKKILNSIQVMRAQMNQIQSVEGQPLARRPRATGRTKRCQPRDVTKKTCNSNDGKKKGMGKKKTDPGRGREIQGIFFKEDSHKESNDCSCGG
Chain of Fes (P07332 whole entry, looked up): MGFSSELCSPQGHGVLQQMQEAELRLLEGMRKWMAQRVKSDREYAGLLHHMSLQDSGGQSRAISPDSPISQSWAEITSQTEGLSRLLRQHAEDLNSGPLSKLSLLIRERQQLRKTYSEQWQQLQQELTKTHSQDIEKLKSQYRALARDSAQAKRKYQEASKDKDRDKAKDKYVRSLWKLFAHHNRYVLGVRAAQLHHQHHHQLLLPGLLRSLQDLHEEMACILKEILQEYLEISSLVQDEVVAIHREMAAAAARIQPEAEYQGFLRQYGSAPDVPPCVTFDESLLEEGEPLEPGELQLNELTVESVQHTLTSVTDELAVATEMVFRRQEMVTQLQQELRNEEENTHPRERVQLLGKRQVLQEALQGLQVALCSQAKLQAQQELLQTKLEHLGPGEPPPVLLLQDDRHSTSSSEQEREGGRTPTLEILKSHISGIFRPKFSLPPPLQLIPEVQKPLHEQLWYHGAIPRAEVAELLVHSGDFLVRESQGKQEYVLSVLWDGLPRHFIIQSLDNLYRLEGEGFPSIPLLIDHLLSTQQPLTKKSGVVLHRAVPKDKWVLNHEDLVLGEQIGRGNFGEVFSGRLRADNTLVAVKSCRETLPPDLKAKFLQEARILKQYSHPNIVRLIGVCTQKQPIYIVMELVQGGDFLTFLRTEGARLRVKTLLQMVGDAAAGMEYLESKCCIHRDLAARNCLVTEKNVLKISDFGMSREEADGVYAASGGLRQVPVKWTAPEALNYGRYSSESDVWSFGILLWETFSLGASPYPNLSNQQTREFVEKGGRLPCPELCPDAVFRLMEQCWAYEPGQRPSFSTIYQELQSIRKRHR
Chain of FGFR3 (P22607 whole entry, looked up): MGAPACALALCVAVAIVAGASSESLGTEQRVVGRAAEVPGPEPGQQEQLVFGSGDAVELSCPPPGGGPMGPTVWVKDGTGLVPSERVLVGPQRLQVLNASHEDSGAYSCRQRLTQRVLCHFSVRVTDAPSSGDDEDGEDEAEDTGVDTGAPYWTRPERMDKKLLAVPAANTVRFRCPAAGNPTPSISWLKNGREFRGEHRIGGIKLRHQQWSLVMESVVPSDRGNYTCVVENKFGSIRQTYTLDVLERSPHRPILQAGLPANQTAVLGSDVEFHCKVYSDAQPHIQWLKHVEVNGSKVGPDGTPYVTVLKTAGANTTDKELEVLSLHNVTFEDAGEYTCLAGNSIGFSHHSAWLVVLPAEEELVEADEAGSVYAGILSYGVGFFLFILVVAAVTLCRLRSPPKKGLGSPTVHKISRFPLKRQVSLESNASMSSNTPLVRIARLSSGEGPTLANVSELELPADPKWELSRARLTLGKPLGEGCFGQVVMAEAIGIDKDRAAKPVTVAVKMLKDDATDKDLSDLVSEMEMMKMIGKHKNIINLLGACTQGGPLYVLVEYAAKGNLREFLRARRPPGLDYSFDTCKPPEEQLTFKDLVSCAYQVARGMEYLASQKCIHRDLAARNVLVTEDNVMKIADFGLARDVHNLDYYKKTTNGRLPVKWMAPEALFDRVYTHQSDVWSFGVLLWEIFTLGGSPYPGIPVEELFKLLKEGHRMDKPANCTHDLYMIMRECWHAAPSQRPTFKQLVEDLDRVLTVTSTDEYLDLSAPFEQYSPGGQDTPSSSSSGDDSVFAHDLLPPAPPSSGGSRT
Chain of EPHB1 (P54762 whole entry, looked up): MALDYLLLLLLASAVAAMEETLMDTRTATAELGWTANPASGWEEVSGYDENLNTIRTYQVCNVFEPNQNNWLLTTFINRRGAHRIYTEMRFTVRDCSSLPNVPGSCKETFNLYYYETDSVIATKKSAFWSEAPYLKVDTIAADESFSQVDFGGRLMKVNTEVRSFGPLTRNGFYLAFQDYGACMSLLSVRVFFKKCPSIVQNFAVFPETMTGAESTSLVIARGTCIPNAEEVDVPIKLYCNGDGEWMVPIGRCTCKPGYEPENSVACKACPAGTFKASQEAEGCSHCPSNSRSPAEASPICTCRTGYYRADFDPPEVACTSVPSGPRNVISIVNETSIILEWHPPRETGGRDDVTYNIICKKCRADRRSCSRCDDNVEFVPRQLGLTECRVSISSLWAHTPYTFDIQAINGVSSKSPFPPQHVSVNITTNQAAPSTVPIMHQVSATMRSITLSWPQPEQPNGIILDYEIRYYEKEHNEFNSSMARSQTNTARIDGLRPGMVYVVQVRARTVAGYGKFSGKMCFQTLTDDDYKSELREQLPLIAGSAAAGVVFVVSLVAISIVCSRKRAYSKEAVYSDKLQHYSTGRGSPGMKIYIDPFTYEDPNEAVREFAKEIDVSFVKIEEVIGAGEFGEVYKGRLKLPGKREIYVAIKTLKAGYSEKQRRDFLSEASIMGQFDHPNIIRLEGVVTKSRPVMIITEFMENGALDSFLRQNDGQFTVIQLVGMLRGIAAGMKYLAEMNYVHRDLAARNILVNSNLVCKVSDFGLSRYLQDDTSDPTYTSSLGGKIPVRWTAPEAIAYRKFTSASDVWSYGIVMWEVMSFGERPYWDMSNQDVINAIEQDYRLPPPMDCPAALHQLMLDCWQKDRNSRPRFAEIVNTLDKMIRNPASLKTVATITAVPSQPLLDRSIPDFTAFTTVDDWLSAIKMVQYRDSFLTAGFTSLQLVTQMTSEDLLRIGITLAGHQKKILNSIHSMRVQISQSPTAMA

For the sequence IDAICYYRMEN [NPHS2_Y194], the phosphorylation enrichment in the series on AncSZ was found to be 1.99; with EPHB1, 0.786; with EPHB2, 0.721; with FGFR1, 3.09; with FGFR3, 3.18; with Fer (mouse), 0.642. The phosphorylation enrichment with Fes came to 1.49; with Fyn, 0.66; with Hck it was 0.8; with Jak2, 3.15; with MERTK, 0.844; in the series on c-Abl (mouse), 0.927. Moreover, in the series on c-Src, the phosphorylation enrichment was found to be 1.71. Besides, the values for the SH2 binding enrichment with Grb2 SH2, with SHP2-C SH2 and in the series with c-Src SH2 were 0.71, 0.534 and 0.499, respectively.
As for IEDPYYGNDSD [ACP1_Y133], the phosphorylation enrichment with AncSZ is 1.5; with EPHB1, 0.638; in the series with EPHB2, 0.809; in the series with FGFR1, 0.807; with FGFR3, 1.09; with Fer (mouse), 0.548. Moreover, the phosphorylation enrichment with Fes was determined as 1.39; in the series with Fyn, 0.81; with Hck, 0.759; in the series with Jak2, 1.35; with MERTK, 0.45; in the series with c-Abl (mouse) it was 0.83. Further, in the series on c-Src, the phosphorylation enrichment is 1.6. The SH2 binding enrichment came out at 1.07 with Grb2 SH2, 0.709 with SHP2-C SH2 and 0.623 with c-Src SH2.
Regarding IEENGYNTYAS [FGF10_Y161], the phosphorylation enrichment turned out to be 1.02 in the series on AncSZ; 0.534 with EPHB1; 0.593 in the series with EPHB2; 0.562 in the series with FGFR1; 0.674 with FGFR3; 0.49 in the series with Fer (mouse). For the same sequence, the phosphorylation enrichment is 1.12 with Fes; 0.606 with Fyn; 0.645 with Hck; 0.802 with Jak2; 0.422 in the series with MERTK; 0.64 in the series with c-Abl (mouse). Besides, the phosphorylation enrichment in the series with c-Src turned out to be 0.6. Besides, the SH2 binding enrichment with Grb2 SH2 was 0.759; with SHP2-C SH2, 0.64; in the series with c-Src SH2, 1.12.
For IENKLYGMSDP [RET_Y1062], the phosphorylation enrichment in the series with AncSZ was found to be 0.941; with EPHB1 it was 0.506; in the series with EPHB2 it was 0.653; with FGFR1 it was 0.585; with FGFR3, 0.689; with Fer (mouse), 0.666. Further, the phosphorylation enrichment is 0.988 with Fes; 0.613 with Fyn; 0.732 in the series with Hck; 0.617 with Jak2; 0.546 with MERTK; 0.707 in the series on c-Abl (mouse). Further, the phosphorylation enrichment in the series with c-Src turned out to be 0.698. Besides, the SH2 binding enrichment is 0.811 with Grb2 SH2, 0.521 with SHP2-C SH2 and 0.533 in the series with c-Src SH2.
Turning to IFHLSYLHNCE [PDE6B_Y227_YF], the phosphorylation enrichment with AncSZ turned out to be 0.985; in the series with EPHB1, 0.589; with EPHB2, 0.566; in the series with FGFR1, 0.494; in the series with FGFR3, 0.856; in the series on Fer (mouse), 0.562. Moreover, the phosphorylation enrichment in the series with Fes came to 1.26; with Fyn, 0.546; with Hck, 0.512; with Jak2, 0.956; with MERTK, 0.436; with c-Abl (mouse), 0.782. Besides, the phosphorylation enrichment in the series on c-Src was found to be 0.431. Further, the SH2 binding enrichment in the series with Grb2 SH2 stood at 1.18; in the series with SHP2-C SH2, 0.894; with c-Src SH2, 0.862.
Regarding IFLGAYDRFLP [SLC22A5_Y486_V481I_YF], the phosphorylation enrichment with AncSZ was determined as 1.06; in the series with EPHB1, 0.84; with EPHB2, 1.41; with FGFR1 it was 0.427; in the series with FGFR3, 0.608; in the series on Fer (mouse) it was 1.1. For the same sequence, the phosphorylation enrichment turned out to be 1 in the series with Fes; 2.45 in the series with Fyn; 3.39 in the series with Hck; 0.896 in the series with Jak2; 3.84 with MERTK; 0.932 with c-Abl (mouse). Further, in the series on c-Src, the phosphorylation enrichment was 3.69. The SH2 binding enrichment with Grb2 SH2 amounted to 0.941; in the series with SHP2-C SH2, 1.22; with c-Src SH2 it was 0.996.
As to IGEGTYRQVYK [CDK13_Y716_G717R], the phosphorylation enrichment in the series on AncSZ was 0.492; in the series with EPHB1 it was 0.289; with EPHB2, 0.465; with FGFR1, 0.42; with FGFR3, 0.391; in the series with Fer (mouse), 0.449. Also, the phosphorylation enrichment with Fes turned out to be 0.546; with Fyn, 0.368; with Hck it was 0.411; with Jak2, 0.655; with MERTK it was 0.319; with c-Abl (mouse), 0.492. Further, in the series on c-Src, the phosphorylation enrichment was determined as 0.521. In addition, the SH2 binding enrichment in the series with Grb2 SH2 worked out at 0.874; with SHP2-C SH2 it was 0.89; with c-Src SH2, 0.589.
As for IGRWVYPLTPE [EIF2B5_Y319_R315G], the phosphorylation enrichment in the series with AncSZ is 1.33; with EPHB1, 0.563; with EPHB2, 0.58; in the series with FGFR1, 0.564; in the series with FGFR3, 0.646; in the series with Fer (mouse), 0.461. Also, the phosphorylation enrichment in the series with Fes was determined as 1.02; in the series with Fyn it was 0.49; with Hck, 0.509; in the series with Jak2, 0.874; with MERTK, 0.551; in the series on c-Abl (mouse), 0.717. In addition, in the series on c-Src, the phosphorylation enrichment came out at 0.502. In addition, the values for the SH2 binding enrichment with Grb2 SH2, in the series with SHP2-C SH2 and with c-Src SH2 were 0.962, 0.878 and 0.62, respectively.
